Results on 4 molecules are retold here after publication PMC7840130 (Science Advances, 2021).

Read-outs that look alike come from different tables or passages of the source. Bounds are passed on as bounds.

In data set [1] the target is BcsQ (in the Bcs macrocomplex) (E. coli 1094) (UniProt P37655). The data set is described as follows: cryo-EM structure.
For data set [2], the target named is BcsQ^His (E. coli 1094) (UniProt P37655). The data set is described as follows: crystal structure.
For data set [3], the target named is T1, BcsA^HA-FLAG (in the Bcs macrocomplex) (E. coli 1094, UniProt P37653 1-872).
T1 sequence (looked up): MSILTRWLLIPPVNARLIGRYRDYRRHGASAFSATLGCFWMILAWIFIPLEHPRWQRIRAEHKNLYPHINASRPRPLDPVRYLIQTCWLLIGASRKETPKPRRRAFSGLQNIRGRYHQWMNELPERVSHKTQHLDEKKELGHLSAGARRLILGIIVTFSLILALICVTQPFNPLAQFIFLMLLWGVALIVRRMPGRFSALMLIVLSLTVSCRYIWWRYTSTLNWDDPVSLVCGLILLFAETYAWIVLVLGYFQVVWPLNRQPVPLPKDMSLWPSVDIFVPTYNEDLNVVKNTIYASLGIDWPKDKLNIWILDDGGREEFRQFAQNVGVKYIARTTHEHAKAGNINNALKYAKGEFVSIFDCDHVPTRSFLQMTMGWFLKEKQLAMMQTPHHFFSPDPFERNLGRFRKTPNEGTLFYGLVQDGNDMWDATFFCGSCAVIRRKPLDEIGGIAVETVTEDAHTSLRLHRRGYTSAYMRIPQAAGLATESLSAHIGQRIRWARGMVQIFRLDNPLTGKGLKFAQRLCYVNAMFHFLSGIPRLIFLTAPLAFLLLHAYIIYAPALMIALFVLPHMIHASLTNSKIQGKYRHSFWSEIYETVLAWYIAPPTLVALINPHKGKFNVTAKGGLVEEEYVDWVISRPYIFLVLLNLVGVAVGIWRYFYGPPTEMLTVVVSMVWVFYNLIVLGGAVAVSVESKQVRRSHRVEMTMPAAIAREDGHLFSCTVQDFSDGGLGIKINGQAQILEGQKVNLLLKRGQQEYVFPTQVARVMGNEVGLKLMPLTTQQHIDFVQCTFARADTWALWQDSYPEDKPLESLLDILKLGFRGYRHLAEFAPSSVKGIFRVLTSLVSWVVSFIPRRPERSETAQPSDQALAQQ
Put plainly: cryo-EM structure.

Data set [4] deals with the molecule itself. The data set is described as follows: cryo-EM structure.
Data set [5] concerns the molecule itself. The data set is described as follows: cryo-EM structure. The source holds these as a separate data set.

In data set [1], “BcsQ (in the Bcs macrocomplex) (from UniProt P37655 1-242) (natural protein)” displayed a stoichiometry N of 2.

Consider “BcsQ^His (from UniProt P37655 1-242) (natural protein)”, for which the stoichiometry N in data set [2] turned out to be 2.

B1: BcsB (in the Bcs macrocomplex) (natural protein, E. coli 1094, UniProt P37652 26-779, looked up)
chain: TPATQPLINAEPAVAAQTEQNPQVGQVMPGVQGADAPVVAQNGPSRDVKLTFAQIAPPPGSMVLRGINPNGSIEFGMRSDEVVTKAMLNLEYTPSPSLLPVQSQLKVYLNDELMGVLPVTKEQLGKKTLAQMPINPLFISDFNRVRLEFVGHYQDVCEKPASTTLWLDVGRSSGLDLTYQTLNVKNDLSHFPVPFFDPSDNRTNTLPMVFAGAPDVGLQQASAIVASWFGSRSGWRGQNFPVLYNQLPDRNAIVFATNDKRPDFLRDHPAVKAPVIEMINHPQNPYVKLLVVFGRDDKDLLQAAKGIAQGNILFRGESVVVNEVKPLLPRKPYDAPNWVRTDRPVTFGELKTYEEQLQSSGLEPAAINVSLNLPPDLYLMRSTGIDMDINYRYTMPPVKDSSRMDISLNNQFLQSFNLSSKQEANRLLLRIPVLQGLLDGKTDVSIPALKLGATNQLRFDFEYMNPMPGGSVDNCITFQPVQNHVVIGDDSTIDFSKYYHFIPMPDLRAFANAGFPFSRMADLSQTITVMPKAPNEAQMETLLNTVGFIGAQTGFPAINLTVTDDGSTIQGKDADIMIIGGIPDKLKDDKQIDLLVQATESWVKTPMRQTPFPGIVPDESDRAAETRSTLTSSGAMAAVIGFQSPYNDQRSVIALLADSPRGYEMLNDAVNDSGKRATMFGSVAVIRESGINSLRVGDVYYVGHLPWFERVWYALANHPILLAVLAAISVILLAWVLWRLLRIISRRRLNPDNE
As for B1, the binding result in data set [3] is “binds”. Also, in data set [4], the “stoichiometry N” value is at most 6.

B2: full-length E. coli BcsB^His (natural protein, E. coli 1094, UniProt P37652 26-779, looked up)
chain: B1 chain
Consider B2, for which the “stoichiometry N” value in data set [5] was found to be 8.

As a reminder, the stoichiometry N is the number of molecules, sites or subunits per partner or assembly.
